Substrate in this data set: C[C@H](N)C(=O)N1CCC[C@H]1C(=O)Nc1ccc2c(C(F)(F)F)cc(=O)oc2c1
In words: purified protein, by the assay type. The settings on record: other: substrate of DP-IV assay.

Experimental findings from patent US5939560A, “Inhibitors of DP-mediated processes, compositions and therapeutic methods thereof” (Ferring B.V., priority 1993, dated 1999) are described below.

Method: All compounds were tested in vitro against pure human DP-IV (purchased from M & E, Copenhagen, Denmark). […] Ki values were determined using Dixon plots.

B1: pure human DP-IV (Homo sapiens) (protein)
chain: MKTPWKVLLGLLGAAALVTIITVPVVLLNKGTDDATADSRKTYTLTDYLKNTYRLKLYSLRWISDHEYLYKQENNILVFNAEYGNSSVFLENSTFDEFGHSINDYSISPDGQFILLEYNYVKQWRHSYTASYDIYDLNKRQLITEERIPNNTQWVTWSPVGHKLAYVWNNDIYVKIEPNLPSYRITWTGKEDIIYNGITDWVYEEEVFSAYSALWWSPNGTFLAYAQFNDTEVPLIEYSFYSDESLQYPKTVRVPYPKAGAVNPTVKFFVVNTDSLSSVTNATSIQITAPASMLIGDHYLCDVTWATQERISLQWLRRIQNYSVMDICDYDESSGRWNCLVARQHIEMSTTGWVGRFRPSEPHFTLDGNSFYKIISNEEGYRHICYFQIDKKDCTFITKGTWEVIGIEALTSDYLYYISNEYKGMPGGRNLYKIQLSDYTKVTCLSCELNPERCQYYSVSFSKEAKYYQLRCSGPGLPLYTLHSSVNDKGLRVLEDNSALDKMLQNVQMPSKKLDFIILNETKFWYQMILPPHFDKSKKYPLLLDVYAGPCSQKADTVFRLNWATYLASTENIIVASFDGRGSGYQGDKIMHAINRRLGTFEVEDQIEAARQFSKMGFVDNKRIAIWGWSYGGYVTSMVLGSGSGVFKCGIAVAPVSRWEYYDSVYTERYMGLPTPEDNLDHYRNSTVMSRAENFKQVEYLLIHGTADDNVHFQQSAQISKALVDVGVDFQAMWYTDEDHGIASSTAHQHIYTHMSHFIKQCFSLP
B1: the Km was 0.8 µM.
